Results reported in publication PMC13276077.

Molecular target: MeCP2 full-length, e2 isoform (Homo sapiens) (UniProt P51608)
Test: EMSA
Settings: EMSA: 20 mM HEPES pH 7.5, 75 mM NaCl, 125 mM KCl, 50 uM EDTA, 2.5 mM beta-mercaptoethanol, 5% glycerol, BSA, 1.58 uM 47 bp competitor DNA (absent in free DNA …)

With “ATGGAACACATTGCACAGGATGTATATATCTGACACGTGCCTGGAGACTAGGGAGTAATCCCCTTGGCGGTTAAAACGCGGGGGACAGCGCGTACGTGCGTTTAAGCGGTGCTAGAGCTGTCTACGACCAATTGAGCGGCCTCGGCACCGGGATTCTCCAGGGCGGCCGCGTATT (double strand) [15-N601-15 nucleosome 81 meCpA]” the Kd (apparent, H1.0 1-97 prebound, competitor DNA, linker meCpA 81 bp from dyad) was 382 nM and the Kd (apparent, H1.0 25-97 prebound, competitor DNA, linker meCpA 81 bp from dyad) was 295 nM.

For “CGGTACCTCGCGAATGCATCTAATGGAACACATTGCACAGGATGTATATATCTGACACGTGCCTGGAGACTAGGGAGTAATCCCCTTGGCGGTTAAAACGCGGGGGACAGAACGCCGGTGCGTTTAAGCGGTGCTAGAGCTGTCTACGACCAATTGAGCGGCCTGCGCACAGGGATTCTCCAGGGCGGCCGCGTATTGGATCCCGAGCC (double strand) [37-N601(mod)-27 nucleosome -6 meCpG]”, the Kd (meCpG at -6) was 57.4 nM.

Sequence “CGGTACCTCGCGAATGCATCTAATGGAACACATTGCACAGGATGTATATATCTGACACGTGCCTGGAGACTAGGGAGTAATCCCCTTGGCGGTTAAAACGCGGGGGACAGAACGCCGGTGCGTTTAAGCGGTGCTAGAGCTGTCTACGACCAATTGAGCGGCCTGCGCACAGGGATTCTCCAGGGCGGCCGCGTATTGGATCCCGAGCC (double strand) [37-N601(mod)-27 nucleosome -56 meCpG]” has a Kd (meCpG at -56) of 55.8 nM.

With “CGGTACCTCGCGAATGCATCTAATGGAACACATTGCACAGGATGTATATATCTGACACGTGCCTGGAGACTAGGGAGTAATCCCCTTGGCGGTTAAAACGCGGGGGACAGAACGCCGGTGCGTTTAAGCGGTGCTAGAGCTGTCTACGACCAATTGAGCGGCCTGCGCACAGGGATTCTCCAGGGCGGCCGCGTATTGGATCCCGAGCC (double strand) [37-N601(mod)-27 nucleosome unmethylated]” the Kd was 82.1 nM.

“CGGTACCTCGCGAATGCATCTAATGGAACACATTGCACAGGATGTATCCGGCTGACACGTGCCTGGAGACTAGGGAGTAATCCCCTTGGCGGTTAAAACGCGGGGGACAGAGCGTACGTGCGTTTAAGCGGTGCTAGAGCTGTCGCGCCCCAATTGAGCGGCCTCGGCACAGGGATTCTCCAGGGCGGCCGCGTATTGGATCCCGAGCC (double strand) [37-N601(mod2)-27 nucleosome +61 meCpG]” was tested, and the Kd (meCpG at +61) was 62 nM.

“CGGTACCTCGCGAATGCATCTAATGGAACACATTGCACAGGATGTATCCGGCTGACACGTGCCTGGAGACTAGGGAGTAATCCCCTTGGCGGTTAAAACGCGGGGGACAGAGCGTACGTGCGTTTAAGCGGTGCTAGAGCTGTCGCGCCCCAATTGAGCGGCCTCGGCACAGGGATTCTCCAGGGCGGCCGCGTATTGGATCCCGAGCC (double strand) [37-N601(mod2)-27 nucleosome -36 meCpG]” was tested, and the Kd (meCpG at -36) was 70.8 nM.

“CGGTACCTCGCGAATGCATCTAATGGAACACATTGCACAGGATGTATCCGGCTGACACGTGCCTGGAGACTAGGGAGTAATCCCCTTGGCGGTTAAAACGCGGGGGACAGAGCGTACGTGCGTTTAAGCGGTGCTAGAGCTGTCGCGCCCCAATTGAGCGGCCTCGGCACAGGGATTCTCCAGGGCGGCCGCGTATTGGATCCCGAGCC (double strand) [37-N601(mod2)-27 nucleosome unmethylated]” gave a Kd of 91.9 nM.

With “GAGCCACAAAACCGGCGACGCTCACGGGTGCCCAGTTCGCGCGCCCACCTACCGTGTGAAGTCGTCACTCGGGCTTCTAAGTACGCTTAGCGCACGGTAGAGCGCAATCCAAGGCTAACCACCGTGCATCGATGTTGAAAGAGGCCCTCCGTCCTTATTACTTCAAGTCCCTGGGGTACCCGTTTCACTGCCA (double strand) [16-N603-30 +91 CG nucleosome 91 meCpG]” the Kd (meCpG at 91) was 71.3 nM.

“GAGCCACAAAATCACCGACGCCCGGGGGTGCCCAGTTCGCGCGCCCACCTACCGTGTGAAGTCGTCACTCGGGCTTCTAAGTACGCTTAGCGCACGGTAGAGCGCAATCCAAGGCTAACCACCGTGCATCGATGTTGAAAGAGGCCCTCCGTCCTTATTACTTCAAGTCCCTGGGGTACCCGTTTCACTGCCA (double strand) [16-N603-30 +81 CG nucleosome 81 meCpG]” showed a Kd (meCpG at 81) of 65.5 nM.
